# “Also recorded” adds a separate entry of the source. Bridge positions count the residues as written; N and C are the ends. Square brackets hold non-standard residues; d marks the D form. Ends that are not written are not given here. S5 = C=CCCC[C@](C)(N)C(=O)O
# T1: RAB25 (Homo sapiens, UniProt P57735)
# T1 construct: incubated in pre-cleared lysate from OVCAR3 cells, which express RAB11 and RAB25; endogenous in cells; host or cells: OVCAR3
# T1 sequence (P57735 1-213): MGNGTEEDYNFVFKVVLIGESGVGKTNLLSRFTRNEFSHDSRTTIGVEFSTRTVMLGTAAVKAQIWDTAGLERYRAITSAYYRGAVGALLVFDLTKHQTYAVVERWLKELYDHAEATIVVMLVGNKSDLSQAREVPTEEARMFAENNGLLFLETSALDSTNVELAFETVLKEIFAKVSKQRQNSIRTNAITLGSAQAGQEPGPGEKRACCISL
# T2: RAB11 (Homo sapiens, UniProt P62491)
# T2 construct: incubated in pre-cleared lysate from OVCAR3 cells, which express RAB11 and RAB25; endogenous in cells; host or cells: OVCAR3
# T2 sequence (P62491 1-216): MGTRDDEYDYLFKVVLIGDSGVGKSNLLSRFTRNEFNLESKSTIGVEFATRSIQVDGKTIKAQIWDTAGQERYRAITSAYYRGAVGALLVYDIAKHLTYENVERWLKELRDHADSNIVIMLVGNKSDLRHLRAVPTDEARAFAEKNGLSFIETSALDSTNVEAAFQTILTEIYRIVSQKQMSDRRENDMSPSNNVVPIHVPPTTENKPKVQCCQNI
# T3: RAB25 (Homo sapiens, UniProt P57735)
# T3 construct: RAB25 (residues E7-Q180) was expressed with an N-terminal GST- and hexahistidine tag; made in house; host or cells: Escherichia coli BL21(DE3) pLysS
# T3 sequence (P57735 7-180): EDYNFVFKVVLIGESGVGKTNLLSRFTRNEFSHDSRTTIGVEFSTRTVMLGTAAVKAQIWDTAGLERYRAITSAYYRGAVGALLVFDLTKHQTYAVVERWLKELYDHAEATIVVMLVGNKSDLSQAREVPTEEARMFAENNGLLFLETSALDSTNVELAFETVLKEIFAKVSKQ
# T4: RAB11 (Homo sapiens, UniProt P62491)
# T4 construct: RAB11 (residues 1-175) was expressed with an N-terminal GST-tag with an internal thrombin cleavage site; GST (thrombin cleavage site between tag and RAB11) (N); made in house; host or cells: Escherichia coli BL21(DE3) pLysS
# T4 sequence (P62491 1-175): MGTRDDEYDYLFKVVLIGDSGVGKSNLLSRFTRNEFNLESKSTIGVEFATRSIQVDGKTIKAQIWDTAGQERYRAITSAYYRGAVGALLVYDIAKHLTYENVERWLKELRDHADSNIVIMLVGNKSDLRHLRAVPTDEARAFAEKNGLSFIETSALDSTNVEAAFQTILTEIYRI
# T5: GST-H6-RAB25 (Homo sapiens, UniProt P57735)
# T5 construct: RAB25 (residues E7-Q180) was expressed with an N-terminal GST- and hexahistidine tag; made in house; host or cells: Escherichia coli BL21(DE3) pLysS
# T5 sequence (P57735 7-180): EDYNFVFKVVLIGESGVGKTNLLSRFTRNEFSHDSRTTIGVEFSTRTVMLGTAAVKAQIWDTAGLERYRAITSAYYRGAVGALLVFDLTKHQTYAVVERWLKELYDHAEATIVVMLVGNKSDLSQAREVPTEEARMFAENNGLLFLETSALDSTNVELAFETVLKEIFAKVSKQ
# Legend:
# RAB25 [1] = target: T1, RAB25; experiment: Biotin-RFP pulldown from OVCAR3 lysate, Western blot for RAB25; format: binding; details: relative to mock or negative control RFP31
# Procedure: (§1) Optimized RFP peptides were synthesized with an amino-terminal diethyleneglycol-biotin moiety. The peptides were immobilized on streptavidin-agarose resin/beads and incubated in pre-cleared lysate from OVCAR3 cells, which express RAB11 and RAB25. The beads were washed, and the protein was eluted and used for Western blot analysis to identify retained RAB11 and RAB25 (FIG. 24). […] The signal is similar to the relative binding affinities and ALPHASCREEN® IC50 observed for RFP peptides.
# OVCAR3 cells = experiment: Transwell migration assay; format: cell-based, Human; details: 15 μM for 24 hours, collagen-coated 8-micron transwells
# Procedure: OVCAR3 cells were seeded on collagen-coated, 8-micron transwells in DMEM media. Cells were treated with 15 μM RFP26, RFP31 or vehicle for 24 hours during cell migration. The cells in the wells were fixed, and migrating cells were stained and counted (FIGS. 25B and 25C).
# [2] = tested on: AKT phosphorylated at S473 (p473-AKT); experiment: AKT phosphorylation at S473 in OVCAR3 cells (Western blot); format: cell-based, Human; design: dose or concentration left out as unconfirmed; details: OVCAR3 cells treated with RFP26 for 24 hours
# Source text: AKT, also known as Protein Kinase B (PKB), is a serine/threonine-specific protein kinase that is associated with tumor cell survival, proliferation, and invasiveness. The activation of AKT is also one of the most frequent alterations observed in human cancer and tumor cells, thus deregulation of the AKT plays a pivotal role in tumor biology (Stuenaes et al., Br. J. Pharmacol. (2010) 160(1):116-29). Full AKT activation requires phosphorylation by activating kinases on two residues: threonine 308 (T308) and serine 473 (S473). Hyperactivation of AKT is associated with resistance to apoptosis as well as increased cell proliferation and metabolism. […] To assess the affect of RFP26 on AKT phosphorylation in OVCAR3 cells, OVCAR3 cells were treated with […] RFP26 for 24 hours. The cells were then lysed, and the lysate was used in a Western blot to detect AKT phosphorylated at S473 (p473-AKT) and total AKT (FIG. 25A).
# RAB11 [3] = target: T2, RAB11; experiment: Biotin-RFP pulldown from OVCAR3 lysate, Western blot for RAB11; format: binding; details: relative to mock or negative control RFP31
# Procedure: as §1
# RAB25 [4] = target: T3, RAB25; experiment: Fluorescence polarization binding of FITC-FIP/FITC-RFP peptides to RAB25; details: FITC peptide 15 nM
# Procedure: (§2) RAB11/25 protein binding assays were performed by incubating FITC-FIP or FITC-RFP (stapled FIP derivatives) peptides (15 nM) with three-fold dilutions of recombinantly-expressed, purified RAB11, RAB25 or a various epitope-tagged version of either in protein-binding buffer (25 mM Tris-HCl, pH 8.0, 150 mM NaCl, 1 mM EDTA, 1 mM DTT, 10 mM MgCl2, 10 mM GTP). Dilutions and incubations were made in 384-well, black flat-bottom plates (Corning) to a total volume of 40 μL and equilibrated for 60 minutes. Polarization was measured on a Spectramax-M5 multi-label plate reader with λex=485 nm and λem=525 nm. Polarization was calculated according to the standard equation: P=(V−H)/(V+H), where P=polarization, V=vertical emission intensity and H=horizontal emission intensity. Kd values were determined by fitting data to a variable-slope sigmoidal binding curve using Prizm 4 graphing software.
# (§3) RAB11 and RAB25 proteins were expressed and purified in Escherichia coli strain BL21(DE3) pLysS (Stratagene) as epitope-tagged fusion proteins in various vectors (Novagen). RAB25 (residues E7-Q180) was expressed with an N-terminal GST- and hexahistidine tag with internal thrombin and TEV cleavage sites (GST-H6-RAB25) (SEQ ID NO: 86) in a pET41-1 vector (Novagen) or with an N-terminal hexahistidine tag alone with an internal thrombin cleavage site (H6-RAB25) (SEQ ID NO: 86) in a pET28 vector (Novagen). FIP3 protein (residues 649-756) was expressed with an N-terminal GST-tag with an internal TEV cleavage site (GST-FIP3) in a pGEX6p-1 vector (Novagen). RAB11 (residues 1-175) was expressed with an N-terminal GST-tag with an internal thrombin cleavage site in a pGEX5x-1 vector (Novagen). Transformed bacteria was grown at 37° C. until an OD600=0.8 was reached, at which point the culture was induced with 0.5 mM isopropyl β-D-1-thiogalactopyranoside (IPTG). Induced cells were grown at 30° C. for 6 hours, pelleted and lysed in binding buffer (25 mM Tris-HC;, pH 8.0, 150 mM NaCl, 1 mM EDTA, 1 mM DTT, 10 mM MgCl2, 10 mM GTP) supplemented with a complete protease inhibitor tablet (Roche) by sonication on ice. The lysate was centrifuged at 14,000 rpm to clear insoluble matter prior to loading onto Ni-NTA resin (Qiagen) for hexahistdine-tagged constructs or on GST-bind agarose resin (Biorad) for GST-tagged constructs. The protein-bound bead slurry was washed 4× with ˜20 mL of buffer and retained protein was eluted with either 250 mM imidazole or 20 mM glutathione in buffer for H6-(SEQ ID NO: 86) or GST-proteins, respectively. The eluent was concentrated using a 30 kD exclusion filter and purified by size-exclusion chromatography on a Superdex-75 Column (Amersham Pharmacia Biotech). Fractions containing purified protein were pooled, concentrated and dialyzed into binding buffer or other similar buffer for specific biochemical assays.
# RAB25 [5] = experiment: as above
# Procedure: as §2, §3
# RAB11 [6] = target: T4, RAB11; experiment: Fluorescence polarization binding of FITC-FIP/FITC-RFP peptides to RAB11; details: FITC peptide 15 nM, fluorescence polarization
# Procedure: Fluorescence polarization (FP) was used to measure FIP peptide binding to RAB11 and RAB25 proteins. […] This indicated specificity in the binding measurement, as this subtle change would be expected to perturb binding.
# as §2, §3
# U2OS osteosarcoma cells = experiment: Quantitative epifluorescence microscopy of cell penetration; format: cell-based; details: 5 μM FITC-RFPs for 12 hours, DMEM 10% FBS
# Procedure: U2OS osteosarcoma cells were treated with 5 μM FITC-RFPs for 12 hours in Dulbecco's Modified Eagle Medium (DMEM) (Gibco®) containing 10% fetal bovine serum (FBS). Cells were washed, then stained with Hoescht nuclear dye. Automated fluorescence microscopy was performed at 20× on an IX5000 epifluorescence microscope. Nuclear staining is shown in the top panel and FITC is show in the bottom panel (FIGS. 16 and 17B). Quantification was performed using MetaXpress software (FIG. 18A).
# [7] = Circular dichroism spectra / percent helicity; format: physicochemical; details: calculated from the absorbance at 222 nm
# Procedure: We next investigated the structural stability of the RFPs by obtaining circular dichroism (CD) spectra for each peptide. All measurements were made at 20° C. in water with peptides at 50 μM. […] By comparison, stapled FIP peptides (RFPs) show helical CD spectra indicated by minima at approximately 208 and 222 nm (FIG. 11B).
# A circular dichroism spectrometer (Jasco J-710, Japan) was used to determine the α-helical content of all peptides. Peptides were dissolved in water to a final concentration of 50 μM in a quartz cuvette with a path length of 1 cm. Absorbance values were taken at 1 nm intervals between 190 and 260 nm for buffer alone and for peptide solutions. The background (buffer) spectrum was subtracted from experimental spectra, which were subsequently subjected to baseline-normalization and curve-smoothing within the spectrometer software. Percent-helicity was calculated from the absorbance at 222 nm using helical models as previously reported in Chen Y H et al., Biochemistry, 13, 3350-9 (1974).
# [8] = Peptide thermal stability by CD at 222 nm; format: physicochemical; details: CD at 222 nm over 10-90° C.
# Procedure: Peptide thermal stability was measured by scanning the peptide CD at 222 nm over a temperature range (10-90° C.). A sigmoidal unfolding curve was apparent for helices of unmodified FIP peptides (FIP4) with a Tm of ˜34° C. (FIG. 12A).
# Peptide thermal stability experiments were performed in a similar manner to circular dichroism experiments in Example 5. Peptide solutions were cooled to 10° C. in a temperature controlled CD-chamber and circular dichroism absorbance at 222 nm was measured at 1 degree intervals while the solution was heated to 90° C. 222 nm CD values were plotted as a function of temperature and fitted to a sigmoidal denaturation curve, with the half-maximal temperature representing the Tm.
# GST-H6-RAB25 = target: T5, GST-H6-RAB25; experiment: ALPHASCREEN competition assay (biotin-RFP14 / GST-H6-RAB25 complex); format: binding; details: competitor added to pre-formed biotin-RFP14/GST-H6-RAB25 complex
# Source text: A nano-bead based […] assay (ALPHASCREEN®) was used to qualitatively assess protein binding (peptide-RAB or protein-RAB association) and quantitatively assess inhibitor ranking (competition assays). […] FIG. 13B schematizes the ALPHASCREEN® (binding) strategy. If an RFP (or FIP protein/peptide) conjugated to biotin (bound to a donor bead, in this case streptavidin) interacts with RAB conjugated to GST (bound to an acceptor bead, in this case, anti-GST), there is a proximity-dependent transfer of chemical energy, resulting in light production.
# For competition assays, complexes consisting of biotin-FIP and GST-RAB proteins or biotin-RFP and GST-RAB peptides with free RFPs, unmodified peptides, and FIP proteins were incubated.
# In FIGS. 13 and 14, the binding complex is pre-formed with Biotin-RFP14 and GST-H6-RAB25 (SEQ ID NO: 86). Soluble competitors were then added after an incubation time (30 min) across a dose range. These competitors are FIP3 (expressed protein), and Trp-labeled derivatives of RFP14, RFP16 and RFP17. After another incubation of 30 min the streptavidin donor beads and Ni-NTA acceptor beads are added and the luminescent signal is measured approximately 30 min later (total of ˜1.5 hr incubation time).
binding to and retention of RAB25 (RAB25 [1]),binding to and retention of RAB11 (RAB11 [3]),relative affinity RAB11 versus RAB25 (selectivity) (RAB25 [5]),binding affinity to RAB11 (RAB11 [6]),competition for RAB25 binding (IC50) (GST-H6-RAB25),Molecule,OVCAR3 cellular migration (OVCAR3 cells),AKT phosphorylation at S473 [2],binding affinity to RAB25 (RAB25 [4]),cell penetration (U2OS osteosarcoma cells),theoretical percent helicity [7],Tm [8]
significant binding to and retention,significant binding to and retention,some selectivity for RAB25,high affinity,,"RFP26: stapled FIP peptide containing an E-R mutation to increase overall charge, SEQ ID NO: 83 (RINFRLQN[S5]IDR[S5]IVRINETNPSILRVK; staple 9-13; not fully specified (C-terminus))",inhibited OVCAR3 cellular migration,decreased AKT phosphorylation at S473,retained binding affinity; also recorded: high affinity,,,
,,,highest binding affinity,,"RFP14: stapled FIP peptide, SEQ ID NO: 75 (RQVRELENYIDRLLV[S5]VNE[S5]TPNILRIPR; staple 16-20; not fully specified (C-terminus))",,,highest binding affinity,lowest cell penetration,highest helical content,64 °C
,,,,significantly higher IC50,"FIP3 protein: expressed FIP3 protein (652-756), soluble competitor in … (protein, UniProt O75154 652-756, looked up, fragment, GST tag) QEYHSRARESELEQEVRRLKQDNRNLKEQNEELNGQIITLSIQGAKSLFSTAFSESLAAEISSVSRDELMEAIQKQEEINFRLQDYIDRIIVAIMETNPSILEVK",,,,,,

# — patent publication US9487562B2, “Stabilized polypeptides as regulators of RAB GTPase function” (President and Fellows of Harvard College, priority 2011, dated 2016)
